# Patent publication CN117603356A (HAIBO HUAJIAN HUZHOU PHARMACEUTICAL TECH CO LTD, dated 2024)
# Biological target: T1, Human-pIgR-ECD-his抗原重组蛋白 (human, UniProt P01833 19-638)
# T1 construct: extracellular domain; Recombinant antigen coated on the ELISA plate (200 ng/well); also called PI蛋白; not shown: his tag
# Experiment: ELISA, antigen coated, anti-human IgG Fc HRP
# T1 sequence (P01833 19-638): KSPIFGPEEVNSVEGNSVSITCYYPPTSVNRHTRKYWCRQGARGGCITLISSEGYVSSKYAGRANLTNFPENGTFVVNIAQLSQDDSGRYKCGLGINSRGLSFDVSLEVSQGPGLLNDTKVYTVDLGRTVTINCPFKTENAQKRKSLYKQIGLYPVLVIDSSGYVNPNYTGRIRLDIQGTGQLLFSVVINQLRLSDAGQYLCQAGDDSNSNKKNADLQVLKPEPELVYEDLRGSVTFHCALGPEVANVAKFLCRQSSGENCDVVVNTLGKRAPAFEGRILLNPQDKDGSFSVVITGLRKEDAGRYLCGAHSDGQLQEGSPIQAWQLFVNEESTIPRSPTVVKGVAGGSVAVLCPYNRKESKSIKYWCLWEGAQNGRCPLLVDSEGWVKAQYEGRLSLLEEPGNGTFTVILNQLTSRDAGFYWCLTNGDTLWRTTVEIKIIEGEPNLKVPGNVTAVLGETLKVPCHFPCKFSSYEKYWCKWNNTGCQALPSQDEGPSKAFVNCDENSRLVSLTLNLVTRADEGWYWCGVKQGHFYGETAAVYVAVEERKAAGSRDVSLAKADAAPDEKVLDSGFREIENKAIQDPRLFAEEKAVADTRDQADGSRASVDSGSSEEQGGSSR
row,Binder,binding result
1,"PI-21-hFc (Fc fusion, VHH inserted into the pFCIG-hIgG1 plasmid, expressed in HEK293F; also called 单克隆PI-21-hFc; not shown: human IgG1 Fc fragment (hFC) from the bought expression plasmid pFCIG-hIgG1) QVKLVQSGGGLVQPGGSLRLSCAASGFTFENYAMGWLRQAPGEGLEWVSSINYNGDVTAYTTSVKGRFTVSRDNAKNTLYLQLNDLKIDDTAMYYCAKGRYGWALSREDYNTRGQGTQVTVSS",binds
2,"PI-74-hFc (Fc fusion, VHH inserted into the pFCIG-hIgG1 plasmid, expressed in HEK293F; also called 单克隆PI-74-hFc; not shown: human IgG1 Fc fragment (hFC) from the bought expression plasmid pFCIG-hIgG1) EVKLVESGGGSVQAGGSLRLSCTASGPTYGRTCMGWFRQAPGREREGVATIETKGLTRYTYYADSVKGRFTISQDDAKNTLYLQMNSLKPEDTAMYYCAADGPGCSGGAFIARGRWYPHWGQGTQVTVSS",binds

# Now from value to binder:
row,binding result,Binder
1,binds,"PI-28-hFc (Fc fusion, VHH inserted into the pFCIG-hIgG1 plasmid, expressed in HEK293F; also called 单克隆PI-28-hFc; not shown: human IgG1 Fc fragment (hFC) from the bought expression plasmid pFCIG-hIgG1) EVKLVESGGGSVQAGGSLRLSCAASGYTYSSACMGWFRQAPGKERDWVALIDGIGSTTYTDSVKGRFTISQDNAKNTLYLQMNSLKPEDTATYYCAADLLSGGYCHPVGGGARDWGGPVVADFTYWGQGTQVTVSS"
2,binds,"PI-19-hFc (Fc fusion, VHH inserted into the pFCIG-hIgG1 plasmid, expressed in HEK293F; also called 单克隆PI-19-hFc; not shown: human IgG1 Fc fragment (hFC) from the bought expression plasmid pFCIG-hIgG1) EVQLVESGGGSVQAGGSLRLSCAASGITISNNCMGWFRQAPGKEREGVALLYSTSSTSSQKSHADSVKGRFTISRDNAKNTVYLQMNSLKPEDSAMYYCAAKSGVCRWNWEYGMDYWDWGKGTLVTISS"
